In patent US20220073617A1 (Five Prime, published 2022):
Where a chain is given by its changes, count along the chain named. In names and notes the source's numbering stands.

B1: P1-064472 (41F11_VH_F27E) (antibody, V domains shown)
VH: QVQLVESGGGLVKPGGSLRLSCAASGETFSDYYMSWIRQAPGKGLEWVSYISNSGSPIYYADSVKGRFTISRDNAKNSLYLQMNSLRAEDTAVYYCARDLPGWYFDLWGRGTLVTVSS
VL: EIVLTQSPATLSLSPGERATLSCRASQSVSSYLAWYQQKPGQAPRLLIYDASNRATGIPARFSASGSGTDFTLTISSLEPEDFAVYYCQQRNNWPRTFGQGTKVEIK
notes: Kabat positions; also called P1-064472-1
B2: P1-065320 (41F11_VH_L96EF100aG VK_A64G) (antibody, V domains shown)
VH: B1 VH with E27F, L100E, F105G
VL: B1 VL with A64G
B3: P1-064526 (41F11_VH_D31E/Y50W/S55E/A60H/Y100E) (antibody, V domains shown)
VH: B1 VH with E27F, D31E, Y50W, S56E, A61H, Y104E
VL: B1 VL
notes: Kabat positions; also called P1-064526-1
B4: P1-064516 (41F11_Vk_V29D/A64G/R91T/R96Y) (antibody, V domains shown)
VH: B1 VH with E27F
VL: B1 VL with V29D, A64G, R91T, R96Y
notes: also called P1-064516-1
B5: P1-064480 (41F11_VH_A60H) (antibody, V domains shown)
VH: B1 VH with E27F, A61H
VL: B1 VL
notes: Kabat positions; also called P1-064480-1
B6: P1-065329 (41F11_VH_D31E/S35Y/Y50W/S55E/A60H/Y100E/F100aG VK_A64G) (antibody, V domains shown)
VH: B1 VH with E27F, D31E, S35Y, Y50W, S56E, A61H, Y104E, F105G
VL: B1 VL with A64G
notes: Kabat positions; also called P1-065329-1
B7: P1-064500 (41F11_Vk_Q90DA64G) (antibody, V domains shown)
VH: B1 VH with E27F
VL: B1 VL with A64G, Q90D
notes: also called P1-064500-1
B8: P1-064494 (41F11_Vk_A25EA64G) (antibody, V domains shown)
VH: B1 VH with E27F
VL: B1 VL with A25E, A64G
notes: also called P1-064494-1
B9: P1-064540 (41F11_VH_T28P/Y50W/S55E/A60H/Y100E) (antibody, V domains shown)
VH: B1 VH with E27F, T28P, Y50W, S56E, A61H, Y104E
VL: B1 VL
notes: Kabat positions; also called P1-064540-1
B10: P1-064528 (41F11_VH_D31E/Y50W/S55E/L96E/Y100E) (antibody, V domains shown)
VH: B1 VH with E27F, D31E, Y50W, S56E, L100E, Y104E
VL: B1 VL
notes: Kabat positions; also called P1-064528-1
B11: P1-064486 (41F11_VH_F100aG) (antibody, V domains shown)
VH: B1 VH with E27F, F105G
VL: B1 VL
notes: Kabat positions; also called P1-064486-1
B12: P1-065316 (41F11_VH_A60H VK A64G) (antibody, V domains shown)
VH: B1 VH with E27F, A61H
VL: B1 VL with A64G
notes: Kabat positions; also called P1-065316-1
B13: P1-064478 (41F11_VH_Y50E) (antibody, V domains shown)
VH: B1 VH with E27F, Y50E
VL: B1 VL
notes: Kabat positions; also called P1-064478-1
B14: P1-065325 (41F11_VH_D31E/Y50W/S55E/A60H/Y100E VK_A64G) (antibody, V domains shown)
VH: B1 VH with E27F, D31E, Y50W, S56E, A61H, Y104E
VL: B1 VL with A64G
notes: Kabat positions; also called P1-065325-1
B15: P1-065312 (41F11_VH_F27E VK_A64G) (antibody, V domains shown)
VH: B1 VH
VL: B1 VL with A64G
notes: Kabat positions; also called P1-065312-1
B16: P1-064484 (41F11_VH_L96E) (antibody, V domains shown)
VH: B1 VH with E27F, L100E
VL: B1 VL
notes: Kabat positions; also called P1-064484-1
B17: P1-064502 (41F11_Vk_R96YA64G) (antibody, V domains shown)
VH: B1 VH with E27F
VL: B1 VL with A64G, R96Y
notes: also called P1-064502-1
B18: P1-065318 (41F11_VH_L96E VK A64G) (antibody, V domains shown)
VH: B1 VH with E27F, L100E
VL: B1 VL with A64G
notes: Kabat positions; also called P1-065318-1
B19: P1-065332 (41F11_VH_T28P/Y50W/S55E/A60H/Y100E VK_A64G) (antibody, V domains shown)
VH: B1 VH with E27F, T28P, Y50W, S56E, A61H, Y104E
VL: B1 VL with A64G
notes: Kabat positions; also called P1-065332-1
B20: P1-065319 (41F11_VH_F100aG VK_A64G) (antibody, V domains shown)
VH: B1 VH with E27F, F105G
VL: B1 VL with A64G
notes: Kabat positions; also called P1-065319-1
B21: P1-064534 (41F11_VH_D31E/S35Y/Y50W/S55E/A60H/Y100E/F100aG) (antibody, V domains shown)
VH: B1 VH with E27F, D31E, S35Y, Y50W, S56E, A61H, Y104E, F105G
VL: B1 VL
notes: Kabat positions; also called P1-064534-1

biological target: T1, monovalent hVISTA-ECD (human VISTA extracellular domain with His tail) (human, UniProt Q9H7M9 33-193); assay: SPR, pH 6.0
T1 construct: analyte flowed over captured antibody; also called huVISTA-His
T1 sequence (Q9H7M9 other isoform, or with tags, fused parts or gaps limits assumed): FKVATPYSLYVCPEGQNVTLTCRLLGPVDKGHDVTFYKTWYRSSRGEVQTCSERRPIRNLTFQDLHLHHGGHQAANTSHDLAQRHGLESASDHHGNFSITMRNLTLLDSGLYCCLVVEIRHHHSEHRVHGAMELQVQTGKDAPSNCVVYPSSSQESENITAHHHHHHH
Description: (§1) Binding of several preparations of each of the '029 progeny clones and of the parent '029 antibodies, formatted as IgG1.3 antibodies, to human VISTA at pH 6.0 and 7.4 was measured by Surface plasmon resonance (SPR). SPR analysis was performed to measure koff and KD binding affinity measurements for VISTA Abs at acidic and neutral pHs using a Biacore® T100 instrument (GE Healthcare). Protein A (ThermoFisher Scientific catalog #21181) was diluted to 20 ug/ml in 10 mM sodium acetate pH 4.5 and immobilized onto flow cells of a CM5 biosensor following the manufacturer's amine coupling protocol (GE Healthcare), targeting 2,000 RU immobilization density of Protein A per flow cell. SPR experiments were conducted at 37° C. using PBST (137 mM sodium chloride, 2.7 mM potassium chloride, 10 mM phosphate buffer, 0.05% Tween® 20) running buffer at pH 7.4 and 6.0. Antibodies were diluted to 25 nM in PBST pH 7.4, and were captured across active biosensor flow cells at 5 ul/min for 60 seconds. […] Two 15 second injections of 10 mM glycine pH 1.5 were used to regenerate the Protein A capture surface between assay cycles. Rate constants ka (kₒₙ) and kd (koff) were derived from reference flow cell and 0 nM blank-subtracted sensorgrams, and were fit to a 1:1 binding model in Biacore® T200 Evaluation Software v.2.0. The affinity constant, KD was calculated as the ratio of rate constants koff/kₒₙ for each VISTA antibody. […]

Row | Binder | Kd | koff | kon
1 | B1 | 18 nM | 0.0411 s⁻¹ | 2.29e+06 M⁻¹ s⁻¹
2 | B2 | 55.8 nM | 0.0387 s⁻¹ | 694000 M⁻¹ s⁻¹
3 | B3 | 0.245 nM | 0.00094 s⁻¹ | 3.84e+06 M⁻¹ s⁻¹
4 | B4 | 7.81 nM | 0.0178 s⁻¹ | 2.28e+06 M⁻¹ s⁻¹
5 | B5 | 14.2 nM | 0.0329 s⁻¹ | 2.32e+06 M⁻¹ s⁻¹
6 | B6 | 11.9 nM | 0.00791 s⁻¹ | 663000 M⁻¹ s⁻¹
7 | B7 | 94.1 nM | 0.157 s⁻¹ | 1.67e+06 M⁻¹ s⁻¹
8 | B8 | 35.6 nM | 0.0485 s⁻¹ | 1.36e+06 M⁻¹ s⁻¹
9 | B9 | 0.268 nM | 0.00192 s⁻¹ | 7.16e+06 M⁻¹ s⁻¹
10 | B10 | 0.167 nM | 0.000584 s⁻¹ | 3.49e+06 M⁻¹ s⁻¹
11 | B11 | 34.3 nM | 0.105 s⁻¹ | 3.07e+06 M⁻¹ s⁻¹
12 | B12 | 14.5 nM | 0.0561 s⁻¹ | 3.86e+06 M⁻¹ s⁻¹
13 | B13 | 96.5 nM | 0.0121 s⁻¹ | 126000 M⁻¹ s⁻¹
14 | B14 | 0.179 nM | 0.00143 s⁻¹ | 7.99e+06 M⁻¹ s⁻¹
15 | B15 | 22.3 nM | 0.0449 s⁻¹ | 2.01e+06 M⁻¹ s⁻¹
16 | B16 | 7.18 nM | 0.0153 s⁻¹ | 2.13e+06 M⁻¹ s⁻¹
17 | B17 | 81.7 nM | 0.332 s⁻¹ | 4.06e+06 M⁻¹ s⁻¹
18 | B18 | 7.84 nM | 0.0154 s⁻¹ | 1.96e+06 M⁻¹ s⁻¹
19 | B19 | 0.409 nM | 0.00221 s⁻¹ | 5.41e+06 M⁻¹ s⁻¹
20 | B20 | 29.1 nM | 0.0385 s⁻¹ | 1.32e+06 M⁻¹ s⁻¹
21 | B21 | 9.05 nM | 0.00649 s⁻¹ | 717000 M⁻¹ s⁻¹

biological target: T1, monovalent hVISTA-ECD (human VISTA …); assay: SPR
Description: as §1

Row | Binder | KD ratio (pH 7.4/pH 6.0)
22 | B1 | 0.2
23 | B2 | 45.5
24 | B3 | 0.8
25 | B4 | 2.45
26 | B5 | 0.17
27 | B6 | 40.2
28 | B7 | 0.48
29 | B8 | 0.29
30 | B9 | 1.06
31 | B10 | 4.6
32 | B11 | 0.45
33 | B12 | 0.28
34 | B13 | 0.07
35 | B14 | 1.42
36 | B15 | 0.3
37 | B16 | 3.64
38 | B17 | 0.5
39 | B18 | 4.91
40 | B19 | 1.11
41 | B20 | 0.85
42 | B21 | 1.79

biological target: T1, monovalent hVISTA-ECD (human VISTA …); assay: SPR, pH 7.4
Description: as §1

Row | Binder | Kd | koff | kon
43 | B1 | 3.6 nM | 0.000987 s⁻¹ | 274000 M⁻¹ s⁻¹
44 | B2 | 2540 nM | 0.0352 s⁻¹ | 13800 M⁻¹ s⁻¹
45 | B3 | 0.196 nM | 0.000109 s⁻¹ | 555000 M⁻¹ s⁻¹
46 | B4 | 19.1 nM | 0.00223 s⁻¹ | 117000 M⁻¹ s⁻¹
47 | B5 | 2.36 nM | 0.000755 s⁻¹ | 320000 M⁻¹ s⁻¹
48 | B6 | 478 nM | 0.000858 s⁻¹ | 1800 M⁻¹ s⁻¹
49 | B7 | 44.7 nM | 0.0145 s⁻¹ | 325000 M⁻¹ s⁻¹
50 | B8 | 10.3 nM | 0.00207 s⁻¹ | 200000 M⁻¹ s⁻¹
51 | B9 | 0.285 nM | 0.000158 s⁻¹ | 553000 M⁻¹ s⁻¹
52 | B10 | 0.768 nM | 0.000227 s⁻¹ | 296000 M⁻¹ s⁻¹
53 | B11 | 15.3 nM | 0.00341 s⁻¹ | 223000 M⁻¹ s⁻¹
54 | B12 | 4.12 nM | 0.000995 s⁻¹ | 242000 M⁻¹ s⁻¹
55 | B13 | 6.89 nM | 0.000381 s⁻¹ | 55400 M⁻¹ s⁻¹
56 | B14 | 0.255 nM | 0.000158 s⁻¹ | 618000 M⁻¹ s⁻¹
57 | B15 | 6.61 nM | 0.00131 s⁻¹ | 198000 M⁻¹ s⁻¹
58 | B16 | 26.1 nM | 0.00353 s⁻¹ | 135000 M⁻¹ s⁻¹
59 | B17 | 40.8 nM | 0.0123 s⁻¹ | 301000 M⁻¹ s⁻¹
60 | B18 | 38.5 nM | 0.0042 s⁻¹ | 109000 M⁻¹ s⁻¹
61 | B19 | 0.456 nM | 0.000236 s⁻¹ | 517000 M⁻¹ s⁻¹
62 | B20 | 24.6 nM | 0.00514 s⁻¹ | 209000 M⁻¹ s⁻¹
63 | B21 | 16.2 nM | 0.000675 s⁻¹ | 41700 M⁻¹ s⁻¹
